Values belong to the sequence of their own block, whether it stands above or below them.
Experiments:
[1] = target: HLA-A*31:01; assay: IEDB peptide-MHC binding, purified MHC/competitive/fluorescence; filed as Kd, often an IC50 or EC50 that approximates it; ≥ and ≤ were set here for values at or beyond the usual limits of such assays
[2] = target: HLA-B*15:01; assay: as above
[3] = target: HLA-A*03:01; assay: as above
[4] = target: HLA-B*15:17; assay: IEDB peptide-MHC binding, purified MHC/direct/fluorescence; filed as Kd, often an IC50 or EC50 that approximates it; ≥ and ≤ were set here for values at or beyond the usual limits of such assays
[5] = target: HLA-B*58:01; assay: as above
[6] = target: HLA-B*57:01; assay: as above
[7] = target: HLA-A*03:01; assay: as above
[8] = target: HLA-A*11:01; assay: as above
[9] = target: HLA-A*30:01; assay: IEDB peptide-MHC binding, purified MHC/competitive/radioactivity; filed as Kd, often an IC50 or EC50 that approximates it; ≥ and ≤ were set here for values at or beyond the usual limits of such assays; conditions: source organism: Dengue virus 1 Brazil/97-11/1997
[10] = target: HLA-A*68:01; assay: as above; conditions: source organism: Dengue virus 1 Brazil/97-11/1997
[11] = target: HLA-A*32:01; assay: as above; conditions: source organism: Dengue virus 1 Brazil/97-11/1997
[12] = target: HLA-A*02:11; assay: IEDB peptide-MHC binding, purified MHC/direct/fluorescence; filed as Kd, often an IC50 or EC50 that approximates it; ≥ and ≤ were set here for values at or beyond the usual limits of such assays; conditions: source organism: Mycobacterium tuberculosis str. Haarlem
[13] = target: HLA-A*69:01; assay: as above
[14] = target: HLA-A*02:12; assay: as above; conditions: source organism: Mycobacterium tuberculosis str. Haarlem
[15] = target: HLA-A*11:01; assay: IEDB peptide-MHC binding, purified MHC/competitive/fluorescence; ≥ and ≤ were set here for values at or beyond the usual limits of such assays
[16] = target: HLA-A*03:01; assay: as above
[17] = target: HLA-A*02:01; assay: as above
[18] = target: HLA-A*24:02; assay: as above
[19] = target: HLA-B*07:02; assay: IEDB peptide-MHC binding, purified MHC/direct/fluorescence; filed as Kd, often an IC50 or EC50 that approximates it; ≥ and ≤ were set here for values at or beyond the usual limits of such assays; conditions: source organism: Escherichia coli O157:H7
[20] = target: HLA-B*48:01; assay: as above; conditions: source organism: Escherichia coli O157:H7
[21] = target: HLA-A*31:01; assay: as above; conditions: source organism: Escherichia coli O157:H7
[22] = target: HLA-B*18:01; assay: as above; conditions: source organism: Escherichia coli O157:H7
[23] = target: HLA-B*27:05; assay: as above; conditions: source organism: Escherichia coli O157:H7
[24] = target: HLA-A*01:01; assay: as above
[25] = target: HLA-A*68:02; assay: as above; conditions: source organism: Escherichia coli O157:H7
[26] = target: HLA-B*15:01; assay: as above; conditions: source organism: Escherichia coli O157:H7
[27] = target: HLA-B*44:02; assay: as above; conditions: source organism: Escherichia coli O157:H7
[28] = target: HLA-B*40:01; assay: as above; conditions: source organism: Escherichia coli O157:H7
[29] = target: HLA-A*02:01; assay: as above; conditions: source organism: Escherichia coli O157:H7
[30] = target: HLA-B*27:03; assay: IEDB peptide-MHC binding, purified MHC/competitive/fluorescence; filed as Kd, often an IC50 or EC50 that approximates it; ≥ and ≤ were set here for values at or beyond the usual limits of such assays; conditions: source organism: Macaca mulatta
[31] = target: HLA-A*69:01; assay: as above; conditions: source organism: Macaca mulatta
[32] = target: HLA-B*18:01; assay: as above; conditions: source organism: Macaca mulatta
[33] = target: HLA-A*26:01; assay: as above; conditions: source organism: Macaca mulatta
[34] = target: HLA-B*57:01; assay: as above; conditions: source organism: Macaca mulatta
[35] = target: HLA-B*46:01; assay: as above; conditions: source organism: Macaca mulatta
[36] = target: HLA-B*51:01; assay: as above; conditions: source organism: Macaca mulatta
[37] = target: HLA-A*02:01; assay: as above; conditions: source organism: Macaca mulatta
[38] = target: HLA-B*39:01; assay: as above; conditions: source organism: Macaca mulatta
[39] = source organism: Escherichia coli E22
[40] = source organism: Vibrio cholerae
[41] = source organism: Mammarenavirus lassaense
[42] = source organism: Mycobacterium tuberculosis
[43] = source organism: Giardia lamblia ATCC 50803
[44] = source organism: Vaccinia virus WR
[45] = source organism: Zaire ebolavirus
[46] = source organism: Influenza B virus
[47] = source organism: Escherichia coli O157:H7
[48] = source organism: Yersinia pestis
[49] = source organism: Sudan ebolavirus
[50] = source organism: Vaccinia virus

Kd [1, 39]: 0.394 µM | Kd [2, 39]: ≥ 20 µM | Kd [3, 39]: ≥ 20 µM
Sequence: EMFIIKYFK

Sequence: KAYSEAETF
Kd [4, 40]: 0.0215 µM | Kd [5, 40]: 0.0238 µM | Kd [6, 40]: 0.173 µM

Sequence: LMQGSTLPR
Kd ([7]; source organism: Influenza A virus (A/South Carolina/1/1918(H1N1))): 6 µM | Kd ([1]; source organism: Influenza A virus (A/swine/Italy/1509-6/97(H1N1))): 0.0302 µM

Sequence: KTFDTEYQK
Kd ([8]; source organism: Dengue virus 1 Singapore/S275/1990): 0.0125 µM | Kd ([1]; source organism: dengue virus type 1): 0.128 µM | Kd [9]: 0.388 µM | Kd [10]: 0.0046 µM | Kd [11]: 7.72 µM

Sequence: AVNNLVELK
Kd [8, 41]: 0.0112 µM | Kd [7, 41]: 2.4 µM | Kd ([1]; source organism: Lassa virus Josiah): 0.0775 µM

Sequence: LLDEGKQSL
Kd [12]: 0.004 µM | Kd [13, 42]: 7 µM | Kd [14]: 0.004 µM

Kd ([3]; source organism: Escherichia coli B7A): 1.78 µM
Sequence: LMMTATGEY

Sequence: IMYPSPNGH
Kd ([3]; source organism: Shigella sonnei Ss046): 0.0077 µM

Sequence: TTHSKGATK
Kd [8, 43]: 0.246 µM | Kd [7, 43]: 0.337 µM | Kd [1, 43]: 0.454 µM

Sequence: VTRFESLK
Kd ([3]; source organism: Influenza A virus (A/Swine/Minnesota/55551/2000(H1N2))): ≥ 20 µM

Sequence: LVDYGLVSK
IC50 [15, 44]: 1.33 µM | IC50 [16, 44]: 12.5 µM

Sequence: QRVIPVYQV
IC50 [15, 45]: 16.2 µM | IC50 [17, 45]: ≥ 113 µM | IC50 [16, 45]: ≥ 93.5 µM

Sequence: LLGQNTPAI
Kd [13, 42]: 1.19 µM | Kd [14]: 0.004 µM

Sequence: LTGGTGVGK
IC50 ([18]; source organism: Variola virus): 38.8 µM | IC50 ([15]; source organism: Variola virus): 0.998 µM | IC50 ([16]; source organism: Variola virus): 5.75 µM

Sequence: KSEPEGTRM
Kd [4, 46]: 3.5 µM | Kd [5, 46]: 19.7 µM | Kd [6, 46]: ≥ 20 µM

Sequence: MVQVHSQGR
IC50 [15, 45]: 4.76 µM | IC50 [16, 45]: 61.4 µM

Sequence: TCKAFGLYK
IC50 [15, 44]: 1.14 µM | IC50 [16, 44]: 6.41 µM

Kd [3, 39]: 0.211 µM
Sequence: SVFESWLEK

Kd [4, 47]: ≥ 20 µM | Kd [19]: ≥ 20 µM | Kd [13, 47]: ≥ 20 µM | Kd [20]: ≥ 20 µM | Kd [21]: ≥ 20 µM | Kd [22]: 0.318 µM | Kd [23]: ≥ 20 µM | Kd [24, 47]: ≥ 20 µM | Kd [5, 47]: ≥ 20 µM | Kd [6, 47]: ≥ 20 µM | Kd [25]: ≥ 20 µM | Kd [26]: ≥ 20 µM | Kd [27]: ≥ 20 µM | Kd [28]: 2.27 µM | Kd [8, 47]: ≥ 20 µM | Kd [29]: ≥ 20 µM | Kd [7, 47]: ≥ 20 µM
Sequence: YECTSRHFT

Sequence: MVLASTTAK
Kd ([7]; source organism: Influenza A virus (A/turkey/MN/735/79(H6N2))): 0.0159 µM | Kd ([1]; source organism: Influenza A virus (A/swine/Hannover/1/1981(H1N1))): 0.0461 µM

Sequence: TSDGFINGW
Kd [4, 48]: 0.251 µM | Kd [5, 48]: 0.088 µM

Sequence: SLLQLPRDK
IC50 [15, 49]: 5.08 µM | IC50 [17, 49]: 16.5 µM | IC50 [16, 49]: 3.84 µM

Sequence: DYHKILTAG
IC50 [18, 45]: 39.9 µM | IC50 [15, 45]: 58.5 µM | IC50 [16, 45]: ≥ 164 µM

Sequence: STFTRGAQK
Kd [8, 41]: 0.0015 µM | Kd [7, 41]: 0.0784 µM | Kd [1, 41]: 0.027 µM

Sequence: NLQPPALSK
Kd ([3]; source organism: Rickettsia sibirica 246): 0.43 µM

Kd ([24]; source organism: Pomacentrus moluccensis): 0.0016 µM | Kd [30]: ≥ 20 µM | Kd [31]: ≥ 20 µM | Kd [32]: ≥ 20 µM | Kd [33]: ≥ 20 µM | Kd [34]: ≥ 20 µM | Kd ([2]; source organism: Macaca mulatta): ≥ 20 µM | Kd [35]: ≥ 20 µM | Kd [36]: ≥ 20 µM | Kd [37]: ≥ 20 µM | Kd [38]: ≥ 20 µM
Sequence: SAEVVTLWY

Sequence: INNQLLLQK
IC50 [15, 50]: 2.44 µM | IC50 [16, 50]: 64.2 µM

Sequence: RLNWLTHLK
Kd ([7]; source organism: Influenza A virus (A/Nagasaki/N03/2005(H3N2))): 0.264 µM | Kd ([1]; source organism: Influenza A virus (A/CHU/2-524/2005(H3N2))): 0.0025 µM

Kd [4, 47]: ≥ 20 µM | Kd [19]: ≥ 20 µM | Kd [13, 47]: ≥ 20 µM | Kd [20]: ≥ 20 µM | Kd [21]: ≥ 20 µM | Kd [22]: ≥ 20 µM | Kd [23]: ≥ 20 µM | Kd [24, 47]: ≥ 20 µM | Kd [5, 47]: ≥ 20 µM | Kd [6, 47]: ≥ 20 µM | Kd [25]: ≥ 20 µM | Kd [28]: 1.45 µM | Kd [8, 47]: ≥ 20 µM | Kd [29]: ≥ 20 µM
Sequence: EEDAAVDDL

Sequence: ITHPKYRKK
Kd ([3]; source organism: Vibrio antiquarius): ≥ 20 µM

Sequence: LRTYTILNR
IC50 [16, 49]: ≥ 286 µM

Source: the Immune Epitope Database (IEDB)
